Data: publication PMC2667502 (2009)

Target: TrkB/P75NTR complex (Mus musculus, UniProt P15209)
Experiment: dose-response of neuronal survival in ventral midbrain cultures

TrkB/P75NTR complex, sequence (P15209 32-821, chain 1 of 2): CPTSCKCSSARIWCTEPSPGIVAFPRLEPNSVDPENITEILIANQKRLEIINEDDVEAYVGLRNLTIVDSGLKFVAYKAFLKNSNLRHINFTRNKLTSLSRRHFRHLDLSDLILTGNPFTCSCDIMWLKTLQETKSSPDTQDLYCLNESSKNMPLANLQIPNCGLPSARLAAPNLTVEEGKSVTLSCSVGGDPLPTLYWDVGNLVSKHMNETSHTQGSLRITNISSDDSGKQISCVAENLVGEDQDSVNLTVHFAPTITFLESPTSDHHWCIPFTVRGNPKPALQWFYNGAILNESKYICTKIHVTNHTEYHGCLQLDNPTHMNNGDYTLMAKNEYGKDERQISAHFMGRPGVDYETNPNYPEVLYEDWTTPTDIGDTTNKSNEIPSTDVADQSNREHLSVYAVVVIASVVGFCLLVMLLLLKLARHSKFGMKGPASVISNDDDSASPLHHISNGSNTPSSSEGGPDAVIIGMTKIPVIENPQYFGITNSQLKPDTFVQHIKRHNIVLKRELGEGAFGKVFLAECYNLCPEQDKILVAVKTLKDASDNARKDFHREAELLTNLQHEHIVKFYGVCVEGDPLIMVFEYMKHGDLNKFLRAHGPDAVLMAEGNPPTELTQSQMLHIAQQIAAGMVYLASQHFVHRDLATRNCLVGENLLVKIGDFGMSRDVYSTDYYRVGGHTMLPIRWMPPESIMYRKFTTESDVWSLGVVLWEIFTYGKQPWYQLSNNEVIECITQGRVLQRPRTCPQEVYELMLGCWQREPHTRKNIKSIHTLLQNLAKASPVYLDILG
TrkB/P75NTR complex, sequence (chain, as listed by the source, chain 2 of 2): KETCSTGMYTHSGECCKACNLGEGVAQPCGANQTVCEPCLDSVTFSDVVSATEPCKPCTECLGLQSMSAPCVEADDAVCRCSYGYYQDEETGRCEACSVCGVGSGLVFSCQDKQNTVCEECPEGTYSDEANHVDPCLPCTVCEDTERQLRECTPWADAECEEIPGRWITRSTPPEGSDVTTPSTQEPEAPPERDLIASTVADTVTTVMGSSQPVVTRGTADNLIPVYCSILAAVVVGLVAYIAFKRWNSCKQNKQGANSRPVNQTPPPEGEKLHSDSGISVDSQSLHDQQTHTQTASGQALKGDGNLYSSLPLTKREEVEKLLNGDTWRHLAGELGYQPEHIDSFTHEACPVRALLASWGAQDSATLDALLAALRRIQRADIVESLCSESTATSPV

B1: BDNF (protein)
chain: HSDPARRGELSVCDSISEWVTAADKKTAVDMSGGTVTVLEKVPVSKGQLKQYFYETKCNPMGYTKEGCRGIDKRHWNSQCRTTQSYVRALTMDSKKRIGWRFIRIDTSCVCTLTIKRGR
Kd: ~2.5 nM
